In IntAct's records for PubMed 17043237:

B1: Pre-B-cell leukemia transcription factor-interacting protein 1 (Homo sapiens), Q96AQ6-1 (parent)
chain: MASCPDSDNSWVLAGSESLPVETLGPASRMDPESERALQAPHSPSKTDGKELAGTMDGEGTLFQTESPQSGSILTEETEVKGTLEGDVCGVEPPGPGDTVVQGDLQETTVVTGLGPDTQDLEGQSPPQSLPSTPKAAWIREEGRCSSSDDDTDVDMEGLRRRRGREAGPPQPMVPLAVENQAGGEGAGGELGISLNMCLLGALVLLGLGVLLFSGGLSESETGPMEEVERQVLPDPEVLEAVGDRQDGLREQLQAPVPPDSVPSLQNMGLLLDKLAKENQDIRLLQAQLQAQKEELQSLMHQPKGLEEENAQLRGALQQGEAFQRALESELQQLRARLQGLEADCVRGPDGVCLSGGRGPQGDKAIREQGPREQEPELSFLKQKEQLEAEAQALRQELERQRRLLGSVQQDLERSLQDASRGDPAHAGLAELGHRLAQKLQGLENWGQDPGVSANASKAWHQKSHFQNSREWSGKEKWWDGQRDRKAEHWKHKKEESGRERKKNWGGQEDREPAGRWKEGRPRVEESGSKKEGKRQGPKEPPRKSGSFHSSGEKQKQPRWREGTKDSHDPLPSWAELLRPKYRAPQGCSGVDECARQEGLTFFGTELAPVRQQELASLLRTYLARLPWAGQLTKELPLSPAFFGEDGIFRHDRLRFRDFVDALEDSLEEVAVQQTGDDDEVDDFEDFIFSHFFGDKALKKRSGKKDKHSQSPRAAGPREGHSHSHHHHHRG

Variants of: B1
Conditions: with esr1_human ESR1, P03372
esr1_human ESR1, P03372, sequence (P03372 whole entry): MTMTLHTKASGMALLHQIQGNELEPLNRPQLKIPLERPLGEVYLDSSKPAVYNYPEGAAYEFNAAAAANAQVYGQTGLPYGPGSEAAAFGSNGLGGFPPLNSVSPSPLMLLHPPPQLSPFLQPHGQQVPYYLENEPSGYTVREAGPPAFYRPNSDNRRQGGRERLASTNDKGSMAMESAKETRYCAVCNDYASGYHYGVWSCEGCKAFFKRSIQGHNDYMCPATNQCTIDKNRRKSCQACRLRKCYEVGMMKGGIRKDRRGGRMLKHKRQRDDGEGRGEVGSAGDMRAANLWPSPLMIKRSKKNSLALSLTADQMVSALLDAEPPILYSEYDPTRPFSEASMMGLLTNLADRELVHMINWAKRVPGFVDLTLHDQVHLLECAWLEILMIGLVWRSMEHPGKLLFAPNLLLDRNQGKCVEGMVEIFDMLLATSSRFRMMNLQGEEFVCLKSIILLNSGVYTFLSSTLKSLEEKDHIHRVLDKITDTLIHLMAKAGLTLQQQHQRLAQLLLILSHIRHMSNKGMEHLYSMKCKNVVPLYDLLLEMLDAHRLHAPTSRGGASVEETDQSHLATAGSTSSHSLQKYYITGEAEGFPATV

Row | Variant | effect of a mutation on the interaction
1 | L615A;L618A;L619A | disrupting interaction strength
